Experimental data from paper PMC12041195.

Assays:
Assay in all cases: BLI
[1] = target: recombinant HA protein of A/Hong Kong/45/2019 (H3N2) (influenza A virus A/Hong Kong/45/2019 (H3N2))
[2] = target: recombinant HA protein of A/New Caledonia/20/1999 (H1N1) (influenza A virus A/New Caledonia/20/1999 (H1N1))
[3] = target: recombinant HA protein of A/Aichi/2/1968 (H3N2) (influenza A virus A/Aichi/2/1968 (H3N2)) (UniProt P03437)
[4] = target: recombinant HA protein of A/Beijing/262/1995 (H1N1) (influenza A virus A/Beijing/262/1995 (H1N1))

Substance	Kd [1] [pM]	Kd [2] [pM]	Kd [3] [pM]	Kd [4] [pM]
IgG-F045-092 (antibody)	12500	–	–	–
IgM-F045-092 (from UniProt P01591 23-159) (antibody)	< 1	< 1	< 1	< 1
